Measurements: patent US7737158B2, “Processes for regulating blood glucose in a mammal” (Washington University, priority 2005, dated 2010)
“Also recorded” adds a separate entry of the source.

Columns and labels:
mouse Nampt [1] = biological target: T1, mouse Nampt (Mus musculus, UniProt Q99KQ4); assay: Enzyme-coupled fluorometric assay, kinetic characterization of recombinant Nampt; assay type: biochemical; design: expressed in transfected cells; cell extracts or culture supernatant, anti-FLAG immunoprecipitates
Description: Enzymatic activities of recombinant Nampt and Nmnat proteins were measured by an enzyme-coupled fluorometric assay (see, e.g., FIG. 4B). In this enzyme-coupled reaction, NAD is converted to NADH by alcohol dehydrogenase, and the fluorescence of NADH is detected in a fluorometer. To establish this assay system, optimal reaction conditions for Nmnat were initially examined by varying ATP and Mg^2+ concentrations and pH of the reaction buffer. The resultant reaction buffer for Nmnat contained 50 mM HEPES [pH 7.4], 0.02% BSA, 12 mM MgCl2, 2 mM ATP, 1.5% ethanol, and 30 μg/ml alcohol dehydrogenase to convert NAD to NADH. To determine the kinetic parameters for Nmnat, 30 ng of purified His-tagged Nmnat and varying concentrations of NMN were added to 1 ml of the reaction buffer. The reactions were run at 37° C. and quenched at six time points by the addition of 250 μl of 0.5 M EDTA. The production of NADH was measured by excitation at 340 nm and emission at 460 nm in a fluorometer. For kinetic characterization of Nampt, 500 ng of His-tagged Nampt and varying concentrations of nicotinamide were reacted at 37° C. in 100 μl of a buffer containing 50 mM Tris-HCl [pH 7.5], 0.02% BSA, 12 mM MgCl2, 2.5 mM ATP, 10 μg/ml His-tagged Nmnat, 0.4 mM phosphoribosyl pyrophosphate (PRPP), 1.5% ethanol, and 30 μg/ml alcohol dehydrogenase. NADH production was measured continuously in a fluorometer.
By using this enzyme-coupled fluorometric assay, kinetic parameters of purified recombinant mouse Nampt and Nmnat for nicotinamide and NMN, respectively, were determined (see, e.g., Table 1). The Lineweaver-Burk plots for these two enzymes are shown, for example, in FIGS. 11A and 11B. […] The Km and Vmax of mouse Nmnat are consistent with previously reported values for human NMNAT-1 (Emanuelli et al., J. Biol. Chem. (2001) 276, 406-412).

mouse Nampt [2] = biological target: T1, mouse Nampt; assay: HPLC detection of Nampt reaction products; assay type: biochemical; design: expressed in transfected cells; cell extracts or culture supernatant, anti-FLAG immunoprecipitates; details: 37° C.
Description: High performance liquid chromatography was used to detect Nampt reaction products. HPLC was performed with Waters 515 pumps and a 2487 detector (Waters, Mass.) with a Supelco LC-18-T column (15 cm×4.6 cm; Supelco, Pa.). The Nampt reaction was conducted at 37° C. for 15 min in 500 μl of reaction buffer (50 mM Tris-HCl [pH 7.5], 10 mM MgCl2, 50 mM nicotinamide, 0.2 mM PRPP) with 50 μg of the recombinant Nampt protein. The reaction was terminated by adding 125 μl of 1 M HClO4. Protein was then precipitated at 18,000 g, and 500 μl of the supernatant was neutralized with 40 μl of 3 M K2CO3. After centrifugation, 100 μl of sample was mixed with 400 μl of Buffer A (50 mM K2PO4/KHPO4, pH 7.0) and loaded into the HPLC system. The products from Nampt reaction were monitored by absorbance at 261 nm.

wild type males = assay: Blood glucose after intraperitoneal injection of recombinant Nampt in fed wild type mice; assay type: in vivo, mouse; details: 1000 pmoles intraperitoneally, fed wild type males, 0, 30, 60 min
Description: If the NAD biosynthetic activity of Nampt is responsible for the phenotypes observed in Nampt^+/− mice, the administration of NMN, a product of the Nampt enzymatic reaction, should be able to correct their problems. To test this possibility, the same Nampt^+/− mice that were used for IPGTTs were injected with NMN at a dose of 500 mg/kg body weight intraperitoneally ˜14 hrs prior to IPGTTs. As a control, PBS was injected to the mice ˜14 hrs before conducting previous IPGTTs. […] Because these findings completely contradict the conclusion by Fukuhara et al., the reproducibility of the insulin-mimetic activity of this protein was examined. Here, 1000 pmoles of the bacterially produced recombinant protein of mouse His-tagged Nampt were injected intraperitoneally to fed wild type males. Blood glucose levels were monitored with a glucometer at 0, 30, and 60 min time points after injection.

mouse Nampt [3] = biological target: T1, mouse Nampt; assay: Enzyme-coupled fluorometric assay of immunoprecipitated Nampt-FLAG and recombinant Nampt; assay type: biochemical; design: expressed in transfected cells; host or cells: mouse NIH3T3 fibroblasts and mouse HIB-1B preadipocytes (differentiated), stably transfected with pCXN2-Nampt-FLAG; cell extracts or culture supernatant, anti-FLAG immunoprecipitates; details: NMN synthesis, 55 min at 37° C., pH8.5; Nampt amount quantified by Western blotting
Description: For immunoprecipitation of intracellular Nampt, whole cell extracts were prepared with ice-cold immunoprecipitation (IP) buffer (phosphate buffer saline [pH 7.4], 0.5% NP-40, 1 mM EDTA,1 mM NaF, 10 μM Trichostatin A, 10 mM nicotinamide, 0.5 mM DTT, protease inhibitor cocktail (Roche)) and mixed with agarose beads conjugated with the mouse monoclonal M2 anti-FLAG antibody (F2426, Sigma) for 3-4 hours at 4° C. For immunoprecipitation of extracellular Nampt, HIB-1B culture supernatants were collected after incubating differentiated HIB-1B cells overnight with DMEM without fetal bovine serum but supplemented with 1 μg/ml insulin and 1 nM triodothyronine, filtered through a 0.22-μm PES membrane, concentrated with Amicon Ultra-15 columns (Millipore, MA), and mixed with anti-FLAG beads for 3-4 hours at 4° C. Immunoprecipitates were washed twice with the IP buffer and twice with PBS.
Immunoprecipitates on anti-FLAG beads were incubated in enzymatic reaction buffer (50 mM Tris-HCl (pH8.5), 100 mM NaCl, 0.25 mM Nicotinamide, 10 mM MgSO4, 1.5% Ethanol, 0.5 mM PRPP, 2.0 mM ATP) for 55 min at 37° C. After this reaction, mouse recombinant nicotinamide mononucleotide adenylyltransferase and yeast alcohol dehydrogenase (Sigma) were added at 10 μg/ml as the final concentration for each, and the mixture was incubated for 5 min at 37° C. Supernatants were then collected by spinning down anti-FLAG beads, and autofluorescence of NADH was measured in a Perkin Elmer LS 50B fluorometer (excitation: 340 nm; emission: 460 nm). Immunoprecipitates bound on anti-FLAG beads were extracted with Laemmli's sample buffer, boiled for 5 minutes, and analyzed by Western blotting with anti-Nampt antibodies. The amounts of Nampt used for enzymatic reactions were quantitated compared to the standards of mouse recombinant Nampt.
The immunoprecipitates from the HIB-1B culture supernatants were subjected to enzyme-coupled fluorometric assays (see Revollo et al., J. Biol. Chem., (2004)279, 50754-50763) to compare enzymatic activity of the intracellular and extracellular forms of Nampt. […] The Nampt enzymatic activity of the bacterially produced recombinant Nampt and the intracellular Nampt-FLAG® immunoprecipitated from HIB-1B and NIH3T3 cellular extracts were also measured and their kcat values calculated (see FIG. 16E). […] It is believed that a post-translational modification may be responsible for the altered enzymatic activity of extracellular Nampt produced by brown adipocytes. […] Despite the extensive mass spectrometric analysis of extracellular Nampt, the precise nature of the modification is currently unknown. Taken together, these findings provide strong evidence that Nampt functions as an NAD biosynthetic enzyme both intra- and extracellularly.

[4] = purified His-tagged recombinant mouse Nampt, substrate nicotinamide

B1: Nampt: Bacterially produced, His-tagged recombinant mouse nicotinamide phosphoribosyltransferase (protein)
chain: MNAAAEAEFNILLATDSYKVTHYKQYPPNTSKVYSYFECREKKTENSKVRKVKYEETVFYGLQYILNKYLKGKVVTKEKIQEAKEVYREHFQDDVFNERGWNYILEKYDGHLPIEVKAVPEGSVIPRGNVLFTVENTDPECYWLTNWIETILVQSWYPITVATNSREQKKILAKYLLETSGNLDGLEYKLHDFGYRGVSSQETAGIGASAHLVNFKGTDTVAGIALIKKYYGTKDPVPGYSVPAAEHSTITAWGKDHEKDAFEHIVTQFSSVPVSVVSDSYDIYNACEKIWGEDLRHLIVSRSTEAPLIIRPDSGNPLDTVLKVLDILGKKFPVTENSKGYKLLPPYLRVIQGDGVDINTLQEIVEGMKQKKWSIENVSFGSGGALLQKLTRDLLNCSFKCSYVVTNGLGVNVFKDPVADPNKRSKKGRLSLHRTPAGNFVTLEEGKGDLEEYGHDLLHTVFKNGKVTKSYSFDEVRKNAQLNIEQDVAPH
In the case of B1, the “catalytic efficiency of Nampt, fold less than that of Nmnat” value (mouse Nampt [1]; Nampt (nicotinamide) versus Nmnat (NMN)) is reported as about 46 fold, the Vmax (mouse Nampt [1]; [4]) is reported as 0.021 µmol/min/mg and the kcat (mouse Nampt [1]; [4]) is reported as 0.020 s⁻¹. For the same molecule, the Km (mouse Nampt [1]; purified His-tagged recombinant mouse Nampt, substrate nicotinamide, 37° C.) was 0.92 µM, the “synthesis of nicotinamide mononucleotide (NMN) from nicotinamide and PRPP” value (mouse Nampt [2]) was “robust synthesis” and the “synthesis of nicotinamide mononucleotide (NMN) from nicotinamide and PRPP” value (mouse Nampt [2]; listed as mouse Nampt) was “produced nicotinamide mononucleotide (NMN)”. The “synthesis of nicotinic acid mononucleotide (NaMN) from nicotinic acid and PRPP” value (mouse Nampt [2]; substrate specificity) was “failed to catalyze; also recorded: did not synthesize”, the blood glucose levels (wild type males; listed as recombinant Nampt) was “no significant effect” and the blood glucose levels (wild type males; listed as recombinant Nampt protein) was “no decrease”. The kcat (mouse Nampt [3]) was 0.035 s⁻¹.
